Reference: patent US20170128524A1 (published 2017)

Molecular target: T1, Syntaxin 1a (mouse, UniProt O35526 1-288)
T1 construct: also called STX1a; STX 1a
Experiment: Co-IP with anti-STX1a antibody from mouse cortical synaptosomes, Western blot

T1 sequence (O35526 whole entry): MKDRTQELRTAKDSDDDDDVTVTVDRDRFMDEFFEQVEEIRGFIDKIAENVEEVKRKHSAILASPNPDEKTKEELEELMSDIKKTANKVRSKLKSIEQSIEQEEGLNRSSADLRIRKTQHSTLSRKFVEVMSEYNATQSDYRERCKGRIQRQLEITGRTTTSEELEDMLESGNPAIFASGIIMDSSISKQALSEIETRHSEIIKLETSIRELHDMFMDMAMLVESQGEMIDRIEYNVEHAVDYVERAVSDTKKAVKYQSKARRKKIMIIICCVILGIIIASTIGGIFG

binding result: no binding
B1: c-Jun N-terminal Kinase isoform 1 (JNK1) (enzyme, mouse, UniProt Q91Y86 1-384, looked up)
chain: MSRSKRDNNFYSVEIGDSTFTVLKRYQNLKPIGSGAQGIVCAAYDAILERNVAIKKLSRPFQNQTHAKRAYRELVLMKCVNHKNIIGLLNVFTPQKSLEEFQDVYIVMELMDANLCQVIQMELDHERMSYLLYQMLCGIKHLHSAGIIHRDLKPSNIVVKSDCTLKILDFGLARTAGTSFMMTPYVVTRYYRAPEVILGMGYKENVDLWSVGCIMGEMVCHKILFPGRDYIDQWNKVIEQLGTPCPEFMKKLQPTVRTYVENRPKYAGYSFEKLFPDVLFPADSEHNKLKASQARDLLSKMLVIDASKRISVDEALQHPYINVWYDPSEAEAPPPKIPDKQLDEREHTIEEWKELIYKEVMDLEERTKNGVIRGQPSPLAQVQQ
notes: Lower 46 kDa band of the JNK signal in the non-immunoprecipitated control; also called lower band, 46 kDa
